The text below walks through data of patent US20150239980A1 (NEOTOPE BOSCIENCES, published 2015).

T1: human MCAM (melanoma cell adhesion molecule) expressed on transfected CHO cells (human, UniProt P43121 24-646)
T1 construct: also called hMCAM; CD146
T1 chain: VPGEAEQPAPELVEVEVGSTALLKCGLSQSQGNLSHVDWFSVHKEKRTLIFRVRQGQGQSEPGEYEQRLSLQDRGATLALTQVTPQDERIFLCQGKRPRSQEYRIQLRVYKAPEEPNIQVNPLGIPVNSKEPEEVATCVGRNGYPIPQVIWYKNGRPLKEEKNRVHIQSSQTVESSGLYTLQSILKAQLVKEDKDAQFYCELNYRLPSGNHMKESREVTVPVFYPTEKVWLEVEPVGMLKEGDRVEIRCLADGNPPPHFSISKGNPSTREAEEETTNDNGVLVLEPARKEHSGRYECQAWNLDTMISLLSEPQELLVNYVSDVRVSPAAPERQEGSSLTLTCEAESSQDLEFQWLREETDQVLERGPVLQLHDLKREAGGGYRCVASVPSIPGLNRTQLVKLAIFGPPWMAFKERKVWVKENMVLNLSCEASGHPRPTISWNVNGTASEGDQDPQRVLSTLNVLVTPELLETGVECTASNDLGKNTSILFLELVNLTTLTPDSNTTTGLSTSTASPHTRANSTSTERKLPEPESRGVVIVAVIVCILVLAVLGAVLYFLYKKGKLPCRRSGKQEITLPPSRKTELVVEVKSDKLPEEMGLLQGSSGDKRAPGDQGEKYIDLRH

T2: Murine MCAM domain 1 (Ig1) with human IgG Fc tag (mouse, UniProt Q8R2Y2 24-131, limits assumed)
T2 construct: domain: domain 1 (Ig1); also called MCAM Fc domain 1; Fc domain 1 alone; not shown: human IgG Fc tag
T2 sequence (looked up): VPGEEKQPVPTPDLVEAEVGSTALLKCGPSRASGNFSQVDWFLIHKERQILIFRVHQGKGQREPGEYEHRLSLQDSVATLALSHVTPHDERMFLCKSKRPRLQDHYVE

T3: murine MCAM-Fc fusion protein (mouse, UniProt Q8R2Y2 24-563)
T3 construct: extracellular domain; produced in CHO cells; also called mouse MCAM-Fc; mouse MCAMhFc; not shown: fused to human IgG
T3 sequence (looked up): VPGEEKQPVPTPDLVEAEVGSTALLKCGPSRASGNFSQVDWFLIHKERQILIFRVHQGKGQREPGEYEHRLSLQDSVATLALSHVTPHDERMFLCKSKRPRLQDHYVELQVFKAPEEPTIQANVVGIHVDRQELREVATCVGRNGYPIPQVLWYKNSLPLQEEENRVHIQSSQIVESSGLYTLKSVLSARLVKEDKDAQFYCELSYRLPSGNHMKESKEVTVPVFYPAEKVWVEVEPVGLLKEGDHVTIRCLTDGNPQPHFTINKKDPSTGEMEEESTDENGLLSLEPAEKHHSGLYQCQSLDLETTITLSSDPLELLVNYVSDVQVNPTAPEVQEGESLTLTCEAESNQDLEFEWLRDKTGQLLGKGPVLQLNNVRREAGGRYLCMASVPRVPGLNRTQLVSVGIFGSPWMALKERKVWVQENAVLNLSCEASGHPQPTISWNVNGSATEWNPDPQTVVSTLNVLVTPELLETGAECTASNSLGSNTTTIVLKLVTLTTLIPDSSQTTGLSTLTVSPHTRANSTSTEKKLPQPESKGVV

T4: Ig2 domain (mouse, UniProt Q8R2Y2)
T4 construct: isolated domain 2; also called Murine MCAM domain 2 (Ig2) with human IgG Fc tag
T4 sequence (Fc fusion chain, looked up): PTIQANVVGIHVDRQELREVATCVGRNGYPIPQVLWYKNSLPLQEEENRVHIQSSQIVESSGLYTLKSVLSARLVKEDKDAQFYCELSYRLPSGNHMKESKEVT

T5: Recombinant human laminin-α4 (R&D systems) (human, UniProt Q16363-2 826-1816)
T5 construct: also called laminin α-4 chain
T5 sequence (looked up): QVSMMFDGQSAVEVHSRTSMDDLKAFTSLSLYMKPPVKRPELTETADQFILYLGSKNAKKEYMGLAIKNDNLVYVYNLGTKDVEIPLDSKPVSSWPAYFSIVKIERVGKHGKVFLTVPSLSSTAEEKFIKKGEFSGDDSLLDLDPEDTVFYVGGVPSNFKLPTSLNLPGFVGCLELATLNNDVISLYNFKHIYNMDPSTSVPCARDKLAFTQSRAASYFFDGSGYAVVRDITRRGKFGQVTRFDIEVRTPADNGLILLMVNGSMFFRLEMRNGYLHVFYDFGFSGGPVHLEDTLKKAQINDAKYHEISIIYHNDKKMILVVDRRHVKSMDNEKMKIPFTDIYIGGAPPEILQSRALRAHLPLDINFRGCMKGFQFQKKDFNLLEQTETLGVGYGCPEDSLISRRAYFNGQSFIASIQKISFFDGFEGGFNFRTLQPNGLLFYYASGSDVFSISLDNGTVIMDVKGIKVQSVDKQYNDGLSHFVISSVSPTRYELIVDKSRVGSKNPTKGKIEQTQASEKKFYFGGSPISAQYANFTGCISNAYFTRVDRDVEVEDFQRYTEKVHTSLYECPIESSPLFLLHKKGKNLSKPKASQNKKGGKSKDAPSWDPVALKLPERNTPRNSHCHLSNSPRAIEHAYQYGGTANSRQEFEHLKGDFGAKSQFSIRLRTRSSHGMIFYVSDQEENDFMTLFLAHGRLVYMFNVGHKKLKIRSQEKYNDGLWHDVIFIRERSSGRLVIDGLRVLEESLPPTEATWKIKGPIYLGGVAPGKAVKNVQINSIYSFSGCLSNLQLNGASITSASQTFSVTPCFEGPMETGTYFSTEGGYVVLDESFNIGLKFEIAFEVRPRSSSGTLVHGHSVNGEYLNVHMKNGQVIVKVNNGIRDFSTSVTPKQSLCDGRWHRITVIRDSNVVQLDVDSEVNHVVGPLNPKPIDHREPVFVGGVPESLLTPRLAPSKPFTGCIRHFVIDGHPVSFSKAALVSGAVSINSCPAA

B1: mouse MCAM expressed on transfected CHO cells (receptor, UniProt Q8R2Y2 24-648, looked up)
chain: VPGEEKQPVPTPDLVEAEVGSTALLKCGPSRASGNFSQVDWFLIHKERQILIFRVHQGKGQREPGEYEHRLSLQDSVATLALSHVTPHDERMFLCKSKRPRLQDHYVELQVFKAPEEPTIQANVVGIHVDRQELREVATCVGRNGYPIPQVLWYKNSLPLQEEENRVHIQSSQIVESSGLYTLKSVLSARLVKEDKDAQFYCELSYRLPSGNHMKESKEVTVPVFYPAEKVWVEVEPVGLLKEGDHVTIRCLTDGNPQPHFTINKKDPSTGEMEEESTDENGLLSLEPAEKHHSGLYQCQSLDLETTITLSSDPLELLVNYVSDVQVNPTAPEVQEGESLTLTCEAESNQDLEFEWLRDKTGQLLGKGPVLQLNNVRREAGGRYLCMASVPRVPGLNRTQLVSVGIFGSPWMALKERKVWVQENAVLNLSCEASGHPQPTISWNVNGSATEWNPDPQTVVSTLNVLVTPELLETGAECTASNSLGSNTTTIVLKLVTLTTLIPDSSQTTGLSTLTVSPHTRANSTSTEKKLPQPESKGVVIVAVIVCTLVLAVLGAALYFFYKKGKLPCGRSGKQEITLPPTRKSEFVVEVKSDKLPEEMALLQGSNGDKRAPGDQGEKYIDLRH
notes: whole, on cells; also called murine MCAM
B2: anti-MCAM monoclonal antibody clone 15 (antibody, V domains shown)
VH: EVRLVESGGGLVQPGKSMKLSCVASGFKFSNYYMSWVRQAPAKGLEWVASISDGGGDTFCRDLVKGRFTISRDNAKSTLYLQMDSLRPEDTATYYCARRGAAMGGVMDAWGQGTSVTVSS
VL: DIVMTQSPSSLAVSAGETVSIHCKSSQSLLYSGTQKNYLAWFQQKPGQSPKLLIFWASTRQSGVPDRFIGRGSGTDFTLTISGVQAEDLAIYYCQQYYDTLTDTFGAGTKLELKR
notes: rat monoclonal raised against murine MCAM-Fc; also called Anti-MCAM Clone 15; anti-mouse MCAM clone 15
B3: human MCAM domain 1 (amino acids 19-129), Fc-tagged (Fc fusion, not shown: a dimerising Fc or GST)
chain: PRVAGVPGEAEQPAPELVEVEVGSTALLKCGLSQSQGNLSHVDWFSVHKEKRTLIFRVRQGQGQSEPGEYEQRLSLQDRGATLALTQVTPQDERIFLCQGKRPRSQEYRIQ
notes: also called MCAM Fc domain 1

For test [1], the target named is T6, recombinant human laminin 511 (Biolamina) (human, UniProt O15230 36-3695; P07942 22-1786; P11047 34-1609).
T6 construct: negative control; also called laminin 10 (α5β1γ1)
The test can be described thus: flow cytometry, mouse MCAM CHO cells, pan-laminin antibody.

The target of test [2] is T1, human MCAM (melanoma cell adhesion …). The test can be described thus: flow cytometry, human MCAM transfected cells mixed with CFSE-labelled untransfected cells.
In test [3] the target is T2, Murine MCAM domain 1 (Ig1) with human …. The experiment in a line: ForteBio Octet Red, domain-hFc on anti-human IgG Fc sensor. From the text: (§1) The following protocol was used: ForteBio Domain Mapping Protocol. ForteBio anti-human IgG Fc biosensors were used to immobilize various mouse MCAMhFc domains including full length mouse MCAMhFc protein on to biosensor surface. These sensors were dipped into either clone 15 or 17 MCAM specific antibody for detection of binding to these domains or full length protein. After loading these samples into a black 96 well plate, the Octet Red was programmed as follows: 60 seconds for baseline #1; 180 seconds for loading various domains; 60 seconds for baseline #2; 180 seconds for association of antibody to domain; and 240 seconds for dissociation of antibody from domain.
(§2) 1. Mouse MCAMhFc final concentration @ 5 ug/ml [0466] 2. Antibody clone 15 or 17 @ 5 ug/ml [0467] 3. ForteBio anti-human IgG Fc Capture (AHC) biosensors for kinetics experiments, cat#18-5060 [0468] 4. […] 5. ForteBio Octet Red machine [0470] 6. Fresh tissue culture medium, DMEM with 20% FCS, was used as buffer for dilution

Test [4] has as its target T3, murine MCAM-Fc fusion protein. The test can be described thus: ForteBio Octet Red, anti-human IgG Fc (AHC) biosensors loaded with mouse MCAM-hFc proteins (5 ug/ml), dipped into antibody (5 ug/ml) or SP2 media.
Text: as §1, §2
(§3) For FIGS. 10A-B, clones 15 and 17 were tested against the following protein samples (all have human IgG Fc tag): Murine MCAM; Human Fc full length protein; Murine MCAM domain 1 (Ig1); Murine MCAM domain 2 (Ig2); and Murine MCAM domain 1 and 2 (Ig1-2A).

Test [5] has as its target T4, Ig2 domain. Described as above.
Text: as §1, §2, §3

Test [6] concerns the target B1. The test can be described thus: flow cytometry, mouse MCAM transfected cells mixed with CFSE-labelled untransfected cells. As for the experimental part: For the generation of antibodies capable of binding to murine MCAM, MCAM-Fc was generated by fusing the extracellular domain of murine MCAM to human IgG and produced in CHO cells using standard techniques. Lou/M rats were immunized with 100 μg of MCAM-Fc protein in CFA (1:1 volume). Rats were boosted two times at two week intervals with MCAM-Fc protein in incomplete Freund's adjuvant (IFA) (1:1 volume). Hybridomas were generated from immunized rats using standard protocols and clones were selected by Clonepix. CHO cells were transfected with the full length murine MCAM gene and selected for stable expression using neomycin and standard techniques. Parental CHO cells (MCAM negative) were fluorescently labeled with carboxyfluorescein succinimidyl ester (CFSE) using standard techniques and mixed at a 1:1 ratio with unlabeled MCAM transfected CHO cells. Hybridoma supernatants were incubated with this mixture of cells for 30 minutes and binding of potential MCAM specific antibodies was detected with a fluorescently labeled anti-rat secondary antibody (Jackson Immuno) by flow cytometry.

The target in test [7] is T6, recombinant human laminin 511 …. The test can be described thus: SPR, Biacore T200.
Test [8] deals with T5, Recombinant human laminin-α4 (R&D …). The experiment in a line: SPR, Biacore T200.

Turning to B1, the binding result in test [1] is reported as “no binding (tested: 10 µg/ml)”.
For the molecule B2, the binding result is “no binding” in test [2]; “no binding (tested: 5 ug/ml)” in test [3]; “binds” in test [4]; “no binding (tested: 5 ug/ml)” in test [5]; “binds” in test [6].
As to B3, the binding result in test [7] and in test [8] was “no binding (tested: 5-175 nM)” throughout.
